In the oligonucleotide strings, read from the 5' end, every base follows the letter of its sugar. An asterisk marks phosphorothioate; unmarked linkages are phosphodiester. Other units and linkages are bracketed, terminal groups are in braces. A string of capitals states the bases alone. m = 2'-O-methyl; r = 2'-OH (RNA)
Assays:
PCSK9 gene [1] = experiment: PCSK9 gRNA/SpCas9 editing in primary human hepatocytes (Tables 2, 4); assay type: cell-based; conditions: SpCas9 mRNA MS002 1:1 by weight; for Human Primary Hepatocyte Editing % 100: 100 ng/RNA/mL; for Human Primary Hepatocyte Editing % 500: 500 ng/RNA/mL; for Human Primary Hepatocyte Editing % 2500: 2500 ng/RNA/mL
Summary of the method: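 Primary human hepatocytes co-transfected with PCSK9 gRNA plus SpCas9 mRNA (1:1 by weight) at 2500, 500 or 100 ng RNA/mL, or 2500–250 ng/mL for tracr-modified guides. Editing at the target site read by amplicon next-generation sequencing of extracted genomic DNA.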

PCSK9 gene [2] = experiment: PCSK9 gRNA/SpCas9 editing in primary cynomolgus hepatocytes (Tables 2, 22); assay type: cell-based, cynomolgus monkey; conditions: SpCas9 mRNA MS002 1:1 by weight; for Cyno Primary Hepatocyte Editing % 100: 100 ng/RNA/mL; for Cyno Primary Hepatocyte Editing % 500: 500 ng/RNA/mL; for Cyno Primary Hepatocyte Editing % 2500: 2500 ng/RNA/mL

B1: GA182: PCSK9 gRNA; protospacer CACCTACGTGGTGGTGCTGA (SEQ ID NO: 176) (nucleic acid)
guide: mC*mA*mC*rCrUrArCrGrUrGrGrUrGrGrUrGrCrUrGrArGrUrUrUrUrArGrArGrCrUrArGrArArArUrArGrCrArArGrUrUrArArArArUrArArGrGrCrUrArGrUrCrCrGrUrUrArUrCrArArCrUrUrGrArArArArArGrUrGrGrCrArCrCrGrArGrUrCrGrGrUrGrCrU*mU*mU*mU
Human Primary Hepatocyte Editing % 100 (PCSK9 gene [1]): 0.95%
Human Primary Hepatocyte Editing % 500 (PCSK9 gene [1]): 4.49%
Human Primary Hepatocyte Editing % 2500 (PCSK9 gene [1]): 17.44%
Cyno Primary Hepatocyte Editing % 100 (PCSK9 gene [2]): 1.55%
Cyno Primary Hepatocyte Editing % 500 (PCSK9 gene [2]): 6.14%
Cyno Primary Hepatocyte Editing % 2500 (PCSK9 gene [2]): 22.89%

B2: GA178: PCSK9 gRNA; protospacer CTCCTTCAGCACCACCACGT (SEQ ID NO: 172) (nucleic acid)
guide: mC*mU*mC*rCrUrUrCrArGrCrArCrCrArCrCrArCrGrUrGrUrUrUrUrArGrArGrCrUrArGrArArArUrArGrCrArArGrUrUrArArArArUrArArGrGrCrUrArGrUrCrCrGrUrUrArUrCrArArCrUrUrGrArArArArArGrUrGrGrCrArCrCrGrArGrUrCrGrGrUrGrCrU*mU*mU*mU
Human Primary Hepatocyte Editing % 100 (PCSK9 gene [1]): 1.26%
Human Primary Hepatocyte Editing % 500 (PCSK9 gene [1]): 5.43%
Human Primary Hepatocyte Editing % 2500 (PCSK9 gene [1]): 18.29%
Cyno Primary Hepatocyte Editing % 100 (PCSK9 gene [2]): 2.21%
Cyno Primary Hepatocyte Editing % 500 (PCSK9 gene [2]): 5.78%
Cyno Primary Hepatocyte Editing % 2500 (PCSK9 gene [2]): 25.22%

B3: GA181: PCSK9 gRNA; protospacer GGCTTCCTGGTGAAGATGAG (SEQ ID NO: 175) (nucleic acid)
guide: mG*mG*mC*rUrUrCrCrUrGrGrUrGrArArGrArUrGrArGrGrUrUrUrUrArGrArGrCrUrArGrArArArUrArGrCrArArGrUrUrArArArArUrArArGrGrCrUrArGrUrCrCrGrUrUrArUrCrArArCrUrUrGrArArArArArGrUrGrGrCrArCrCrGrArGrUrCrGrGrUrGrCrU*mU*mU*mU
Human Primary Hepatocyte Editing % 100 (PCSK9 gene [1]): 28.87%
Cyno Primary Hepatocyte Editing % 100 (PCSK9 gene [2]): 3.66%
Cyno Primary Hepatocyte Editing % 500 (PCSK9 gene [2]): 15.43%
Cyno Primary Hepatocyte Editing % 2500 (PCSK9 gene [2]): 45.12%

B4: GA175: PCSK9 gRNA; protospacer GAAGATGAGTGGCGACCTGC (SEQ ID NO: 169) (nucleic acid)
guide: GAAGAUGAGUGGCGACCUGCGUUUUAGAGCUAGAAAUAGCAAGUUAAAAUAAGGCUAGUCCGUUAUCAACUUGAAAAAGUGGCACCGAGUCGGUGCUUUU
modifications: sugars from the 5' end m3 r94 m3, linkages s3 o93 s3 (s phosphorothioate, o phosphodiester), T or U not given here
Human Primary Hepatocyte Editing % 100 (PCSK9 gene [1]): 1.55%
Human Primary Hepatocyte Editing % 500 (PCSK9 gene [1]): 7.53%
Human Primary Hepatocyte Editing % 2500 (PCSK9 gene [1]): 24.81%
Cyno Primary Hepatocyte Editing % 100 (PCSK9 gene [2]): 1.45%
Cyno Primary Hepatocyte Editing % 500 (PCSK9 gene [2]): 12.37%
Cyno Primary Hepatocyte Editing % 2500 (PCSK9 gene [2]): 44.77%

B5: GA183: PCSK9 gRNA; protospacer CTACGTGGTGGTGCTGAAGG (SEQ ID NO: 177) (nucleic acid)
guide: mC*mU*mA*rCrGrUrGrGrUrGrGrUrGrCrUrGrArArGrGrGrUrUrUrUrArGrArGrCrUrArGrArArArUrArGrCrArArGrUrUrArArArArUrArArGrGrCrUrArGrUrCrCrGrUrUrArUrCrArArCrUrUrGrArArArArArGrUrGrGrCrArCrCrGrArGrUrCrGrGrUrGrCrU*mU*mU*mU
Human Primary Hepatocyte Editing % 100 (PCSK9 gene [1]): 2.21%
Human Primary Hepatocyte Editing % 500 (PCSK9 gene [1]): 9.89%
Human Primary Hepatocyte Editing % 2500 (PCSK9 gene [1]): 32.35%
Cyno Primary Hepatocyte Editing % 100 (PCSK9 gene [2]): 2.87%
Cyno Primary Hepatocyte Editing % 500 (PCSK9 gene [2]): 15.99%
Cyno Primary Hepatocyte Editing % 2500 (PCSK9 gene [2]): 39.56%

B6: GA177: PCSK9 gRNA; protospacer GGTCGCCACTCATCTTCACC (SEQ ID NO: 171) (nucleic acid)
guide: GGUCGCCACUCAUCUUCACCGUUUUAGAGCUAGAAAUAGCAAGUUAAAAUAAGGCUAGUCCGUUAUCAACUUGAAAAAGUGGCACCGAGUCGGUGCUUUU
modifications: sugars from the 5' end m3 r94 m3, linkages s3 o93 s3 (s phosphorothioate, o phosphodiester), T or U not given here
Human Primary Hepatocyte Editing % 100 (PCSK9 gene [1]): 0.65%
Human Primary Hepatocyte Editing % 500 (PCSK9 gene [1]): 2.67%
Human Primary Hepatocyte Editing % 2500 (PCSK9 gene [1]): 12.57%
Cyno Primary Hepatocyte Editing % 100 (PCSK9 gene [2]): 0.38%
Cyno Primary Hepatocyte Editing % 500 (PCSK9 gene [2]): 4.68%
Cyno Primary Hepatocyte Editing % 2500 (PCSK9 gene [2]): 15.91%

B7: GA176: PCSK9 gRNA; protospacer AGCACCACCACGTAGGTGCC (SEQ ID NO: 170) (nucleic acid)
guide: AGCACCACCACGUAGGUGCCGUUUUAGAGCUAGAAAUAGCAAGUUAAAAUAAGGCUAGUCCGUUAUCAACUUGAAAAAGUGGCACCGAGUCGGUGCUUUU
modifications: sugars from the 5' end m3 r94 m3, linkages s3 o93 s3 (s phosphorothioate, o phosphodiester), T or U not given here
Human Primary Hepatocyte Editing % 100 (PCSK9 gene [1]): 0.36%
Human Primary Hepatocyte Editing % 500 (PCSK9 gene [1]): 1.26%
Human Primary Hepatocyte Editing % 2500 (PCSK9 gene [1]): 4.98%
Cyno Primary Hepatocyte Editing % 100 (PCSK9 gene [2]): 2.11%
Cyno Primary Hepatocyte Editing % 500 (PCSK9 gene [2]): 8.11%
Cyno Primary Hepatocyte Editing % 2500 (PCSK9 gene [2]): 22.65%

B8: GA179: PCSK9 gRNA; protospacer GAGTGGCGACCTGCTGGAGC (SEQ ID NO: 173) (nucleic acid)
guide: mG*mA*mG*rUrGrGrCrGrArCrCrUrGrCrUrGrGrArGrCrGrUrUrUrUrArGrArGrCrUrArGrArArArUrArGrCrArArGrUrUrArArArArUrArArGrGrCrUrArGrUrCrCrGrUrUrArUrCrArArCrUrUrGrArArArArArGrUrGrGrCrArCrCrGrArGrUrCrGrGrUrGrCrU*mU*mU*mU
Human Primary Hepatocyte Editing % 100 (PCSK9 gene [1]): 1.29%
Human Primary Hepatocyte Editing % 500 (PCSK9 gene [1]): 6%
Human Primary Hepatocyte Editing % 2500 (PCSK9 gene [1]): 21.87%
Cyno Primary Hepatocyte Editing % 100 (PCSK9 gene [2]): 1.06%
Cyno Primary Hepatocyte Editing % 500 (PCSK9 gene [2]): 4.21%
Cyno Primary Hepatocyte Editing % 2500 (PCSK9 gene [2]): 12.94%

B9: GA186: PCSK9 gRNA; protospacer CTCATCTTCACCAGGAAGCC (SEQ ID NO: 180) (nucleic acid)
guide: mC*mU*mC*rArUrCrUrUrCrArCrCrArGrGrArArGrCrCrGrUrUrUrUrArGrArGrCrUrArGrArArArUrArGrCrArArGrUrUrArArArArUrArArGrGrCrUrArGrUrCrCrGrUrUrArUrCrArArCrUrUrGrArArArArArGrUrGrGrCrArCrCrGrArGrUrCrGrGrUrGrCrU*mU*mU*mU
Human Primary Hepatocyte Editing % 100 (PCSK9 gene [1]): 0.79%
Human Primary Hepatocyte Editing % 500 (PCSK9 gene [1]): 3.57%
Human Primary Hepatocyte Editing % 2500 (PCSK9 gene [1]): 12.01%
Cyno Primary Hepatocyte Editing % 100 (PCSK9 gene [2]): 1.96%
Cyno Primary Hepatocyte Editing % 500 (PCSK9 gene [2]): 7.59%
Cyno Primary Hepatocyte Editing % 2500 (PCSK9 gene [2]): 33.48%

B10: GA185: PCSK9 gRNA; protospacer AGACATGCAGGATCTTGGTG (SEQ ID NO: 179) (nucleic acid)
guide: mA*mG*mA*rCrArUrGrCrArGrGrArUrCrUrUrGrGrUrGrGrUrUrUrUrArGrArGrCrUrArGrArArArUrArGrCrArArGrUrUrArArArArUrArArGrGrCrUrArGrUrCrCrGrUrUrArUrCrArArCrUrUrGrArArArArArGrUrGrGrCrArCrCrGrArGrUrCrGrGrUrGrCrU*mU*mU*mU
Human Primary Hepatocyte Editing % 100 (PCSK9 gene [1]): 1.6%
Human Primary Hepatocyte Editing % 500 (PCSK9 gene [1]): 10.91%
Human Primary Hepatocyte Editing % 2500 (PCSK9 gene [1]): 27.98%
Cyno Primary Hepatocyte Editing % 100 (PCSK9 gene [2]): 1.14%
Cyno Primary Hepatocyte Editing % 500 (PCSK9 gene [2]): 7.75%
Cyno Primary Hepatocyte Editing % 2500 (PCSK9 gene [2]): 20.29%

B11: GA174: PCSK9 gRNA; protospacer GGATCTTGGTGAGGTATCCC (SEQ ID NO: 168) (nucleic acid)
guide: GGAUCUUGGUGAGGUAUCCCGUUUUAGAGCUAGAAAUAGCAAGUUAAAAUAAGGCUAGUCCGUUAUCAACUUGAAAAAGUGGCACCGAGUCGGUGCUUUU
modifications: sugars from the 5' end m3 r94 m3, linkages s3 o93 s3 (s phosphorothioate, o phosphodiester), T or U not given here
Human Primary Hepatocyte Editing % 100 (PCSK9 gene [1]): 1.18%
Human Primary Hepatocyte Editing % 500 (PCSK9 gene [1]): 5.24%
Human Primary Hepatocyte Editing % 2500 (PCSK9 gene [1]): 14.74%
Cyno Primary Hepatocyte Editing % 100 (PCSK9 gene [2]): 1.60%
Cyno Primary Hepatocyte Editing % 500 (PCSK9 gene [2]): 4.88%
Cyno Primary Hepatocyte Editing % 2500 (PCSK9 gene [2]): 18.65%

B12: GA184: PCSK9 gRNA; protospacer ATGGAAGACATGCAGGATCT (SEQ ID NO: 178) (nucleic acid)
guide: mA*mU*mG*rGrArArGrArCrArUrGrCrArGrGrArUrCrUrGrUrUrUrUrArGrArGrCrUrArGrArArArUrArGrCrArArGrUrUrArArArArUrArArGrGrCrUrArGrUrCrCrGrUrUrArUrCrArArCrUrUrGrArArArArArGrUrGrGrCrArCrCrGrArGrUrCrGrGrUrGrCrU*mU*mU*mU
Human Primary Hepatocyte Editing % 100 (PCSK9 gene [1]): 2.65%
Human Primary Hepatocyte Editing % 500 (PCSK9 gene [1]): 8.29%
Human Primary Hepatocyte Editing % 2500 (PCSK9 gene [1]): 29.55%
Cyno Primary Hepatocyte Editing % 100 (PCSK9 gene [2]): 2.90%
Cyno Primary Hepatocyte Editing % 500 (PCSK9 gene [2]): 10.54%
Cyno Primary Hepatocyte Editing % 2500 (PCSK9 gene [2]): 31.87%

B13: GA180: PCSK9 gRNA; protospacer GCGCACTGCCCGCCGCCTGC (SEQ ID NO: 174) (nucleic acid)
guide: mG*mC*mG*rCrArCrUrGrCrCrCrGrCrCrGrCrCrUrGrCrGrUrUrUrUrArGrArGrCrUrArGrArArArUrArGrCrArArGrUrUrArArArArUrArArGrGrCrUrArGrUrCrCrGrUrUrArUrCrArArCrUrUrGrArArArArArGrUrGrGrCrArCrCrGrArGrUrCrGrGrUrGrCrU*mU*mU*mU
Human Primary Hepatocyte Editing % 100 (PCSK9 gene [1]): 0.22%
Human Primary Hepatocyte Editing % 500 (PCSK9 gene [1]): 2.22%
Human Primary Hepatocyte Editing % 2500 (PCSK9 gene [1]): 17.16%
Cyno Primary Hepatocyte Editing % 100 (PCSK9 gene [2]): 0.91%
Cyno Primary Hepatocyte Editing % 500 (PCSK9 gene [2]): 2.45%
Cyno Primary Hepatocyte Editing % 2500 (PCSK9 gene [2]): 14.12%

Source: patent US20250152746A1, “BASE EDITING OF ANGPTL3 AND METHODS OF USING SAME FOR TREATMENT OF DISEASE” (Verve Therapeutics, Inc., priority 2020, published 2025)
